Laboratory results published in article PMC12948190, “Microfluidic Electrochemical Biosensor for the Detection of Platelet Factor 4 Antibody‐Mediated Thrombotic Disorders” (Advanced Science, 2025).

Biological target: the molecule itself
Experiment: cross-linking + AUC; PF4 cross-linked with 1 mg/mL EDC (equal v:v) in 15 mM MES pH 8.0, 6 h, ambient temperature, stopped with 1 M Tris pH 7.4; oligomeric species analysed by SDS-PAGE and ultracentrifugation

B1: cross-linked platelet factor 4 (natural protein, human, UniProt P02776 32-101, looked up)
chain: EAEEDGDLQCLCVKTTSQVRPRHITSLEVIKAGPHCPTAQLIATLKNGRKICLDLQAPLYKKIIKKLLES
modifications: chemically cross-linked with 1-ethyl-3-(3-dimethylaminopropyl) carbodiimide (EDC); cross-linked residues not stated
notes: Platelet factor 4 (PF4, CXCL4), human, recombinant; The bought recombinant protein is probably the mature 70-residue chemokine (surmised); also called c-PF4; cross-linked PF4; source: bought: Protein Foundry LLC (recombinant PF4, Human CXCL4); cross-linked with EDC
stoichiometry N: 4
